The values below come from patent US8580556B2, “Sulfonylurea-responsive repressor proteins” (E. I. du Pont de Nemours and Company, priority 2008, dated 2013).

Sequences and labels used below:
B1: L1-2: library L1 hit, sulfonylurea-responsive TetR(B) variant, SEQ ID NO: 3 (protein)
chain: MGSRLDKSKVINSALELLNEVGIEGLTTRKLAQKLGVEQPTLYWHVKNKRALLDALAIEMLDRHATHFCPLEGESWQDFLRNNAKSFRCALLSHRDGAKVCLGTAVTEKQYETMENILAFLCQQGFSLENALYARRAVIAFTLGCVLWDQEYQVAKEERETPTTDSMPPLLRQARELIDHQGAEPAFLFGLELIICGLEKQLKCESGS
modifications: Sulfonylurea responsive repressor L1-02
B2: L1-9: library L1 hit, sulfonylurea-responsive TetR(B) variant, parent of L2 and L4 (protein)
chain: MGSRLDKSKVINSALELLNEVGIEGLTTRKLAQKLGVEQPTLYWHVKNKRALLDALAIEMLDRHATHFCPLEGESWQDFLRNNAKSMRCALLSHRDGAKVCLGTGFTEKQYETAENSLAFLCQQGFSLENALYAMQAVCIFTLGCVLLDQELQVAKEERETPTTDSMPPLLRQALELKDHQGAEPAFLFGLELIICGLEKQLKCESGS
modifications: Sulfonylurea responsive repressor L1-09
B3: L1-20: library L1 hit, sulfonylurea-responsive TetR(B) variant, SEQ ID NO: 6 (protein)
chain: MGSRLDKSKVINSALELLNEVGIEGLTTRKLAQKLGVEQPTLYWHVKNKRALLDALAIEMMDRHQTHFCPLEGESWQDFLRNNAKSMRCALLSHRDGAKVFLGTAWTEKQYETVENLLAFLCQQGFSLENALYALNAVATFTLGCVLWDQEKQVAKEERETPTTDSMPPLLRQAHELGDHQGAEPAFLFGLELIICGLEKQLKSESGS
modifications: Sulfonylurea responsive repressor L1-20
B4: L1-29: library L1 hit, sulfonylurea-responsive TetR(B) variant, SEQ ID NO: 10 (protein)
chain: MGSRLDKSKVINSALELLNEVGIEGLTTRKLAQKLGVEQPTLYWHVKNKRALLDALAIEMMDRHQTHFCPLEGESWQDFLRNTAKSMRCALLSHRDGAKVWLGTRWTEKQYETPENMLAFLCQQGFSLENALYAWSAVCNFTLGCVLSDQERQVAKEERETPTTDSMPPLLRQAWELSDHQGAEPAFLFGLELIICGLEKQLKCESGS
modifications: Sulfonylurea responsive repressor L1-29
B5: L1-24: library L1 hit, sulfonylurea-responsive TetR(B) variant (protein)
chain: MGSRLDKSKVINSALELLNEVGIEGLTTRKLAQKLGVEQPTLYWHVKNKRALLDALAIEMLDRHNTHFCPLEGESWQDFLRNSAKSMRCALLSHRDGAKVLLGTAVTEKQYETTENSLAFLCQQGFSLENALYAIRAVRTFTLGCVLVDQERQVAKEERETPTTDSMPPLLRQAKELLDHQGAEPAFLFGLELIICGLEKQLKCESGS
modifications: Sulfonylurea responsive repressor L1-24
B6: L1-28: library L1 hit, sulfonylurea-responsive TetR(B) variant (protein)
chain: MGSRLDKSKVINSALELLNEVGIEGLTTRKLAQKLGVEQPTLYWHVKNKRALLDALAIEMLDRHATHFCPLEGESWQDFLRNNAKSMRCALLSHRDGAKVWLGTAWTEKQYETPENVLAFLCQQGFSLENALYASRAVVTFTLGCVLTDQEKQVAKEERETPTTDSMPPLLRQAWELLDHQGAEPAFLFGLELIICGLEKQLKCESGS
modifications: Sulfonylurea responsive repressor L1-28
B7: L1-31: library L1 hit, sulfonylurea-responsive TetR(B) variant (protein)
chain: MGSRLDKSKVINSALELLNEVGIEGLTTRKLAQKLGVEQPTLYWHVKNKRALLDALAIEMLDRHATHFCPLEGESWQDFLRNNAKSMRCALLSHRDGAKVMLGTRATEKQYETVENRLAFLCQQGFSLENALYAVRAVHWFTLGCVLIDQEMQVAKEERETPTTDSMPPLLRQAYELYDHQGAEPAFLFGLELIICGLEKQLKCESGS
modifications: Sulfonylurea responsive repressor L1-31

One series deals with tetA promoter (PtetA)-lacZ reporter in E. coli KM3. The class given is cell-based. The following applies: 20 μg/ml Ts; 96-well re-test, FIG. 3.
On to B1, for which the “response to thifensulfuron-methyl (Ts), blue colony color” value is “most intensely responding”.
Still for that read-out and setting: for B2 the value was “most intensely responding”.
On the same count and under the same terms, for B3 the value was “most intensely responding”.

Staying with this series, now noted: Table 4; anhydrotetracycline 0.4 μM; 48 hrs at 30° C.
B1: the “relative β-galactosidase activity, inducer atc” value came to 1.2.
The same measure, in the same setting: for B4 the value was 0.0; for B5, 0.1; for B6, 0.0.
Same read-out and setting: for B7 the value was 0.4.
The same measure, in the same setting: for B2 the value was 0.3; for B3, 2.0.

Still in this series, the particulars now being: Table 4; chlorimuron 20 μg/ml (20 ppm); 48 hrs at 30° C.
On to B1, for which the “relative β-galactosidase activity, inducer Ci” value stood at 13.6.
For the molecule B4, the “relative β-galactosidase activity, inducer Ci” value worked out at 20.9.
On to B5, for which the “relative β-galactosidase activity, inducer Ci” value is given as 22.1.
Still for that read-out and setting: for B6 the value was 14.6.
Still for that read-out and setting: for B7 the value was 1.1.
Still for that read-out and setting: next, B2: 9.8.
Regarding B3, the “relative β-galactosidase activity, inducer Ci” value came to 13.5.

The series is the same for the next values; noted with them: Table 4; chlorsulfuron 20 μg/ml (20 ppm); 48 hrs at 30° C.
B1: the “relative β-galactosidase activity, inducer Cs” value turned out to be 4.1.
Same read-out and setting: for B4 the value was 15.8.
As to B5, the “relative β-galactosidase activity, inducer Cs” value is given as 3.3.
Regarding B6, the “relative β-galactosidase activity, inducer Cs” value is 5.8.
Regarding B7, the “relative β-galactosidase activity, inducer Cs” value is on record as 1.4.
The same measure, in the same setting: for B3 the value was 22.0.

The same series, now with this note: Table 4; ethametsulfuron 20 μg/ml (20 ppm); 48 hrs at 30° C.
With B1, the “relative β-galactosidase activity, inducer Es” value turned out to be 5.8.
For the molecule B4, the “relative β-galactosidase activity, inducer Es” value is recorded as 1.7.
Same read-out and setting: for B5 the value was 0.2; for B6, 0.8.
Same read-out and setting: next, B7: 13.7; B3: 15.0.

The series is the same for the next values; noted with them: Table 4; metsulfuron 20 μg/ml (20 ppm); 48 hrs at 30° C.
With B1, the “relative β-galactosidase activity, inducer Ms” value is reported as 1.9.
On the same count and under the same terms, for B5 the value was 0.4; for B6, 18.8.
Same read-out and setting: next, B7: 0.5; B2: 1.2.
Still for that read-out and setting: for B3 the value was 12.4.

The series is the same for the next values; noted with them: Table 4; nicosulfuron 20 μg/ml (20 ppm); 48 hrs at 30° C.
On to B1, for which the “relative β-galactosidase activity, inducer Ns” value amounted to 1.3.
Same read-out and setting: next, B4: 0.1; B5: 0.3.
Still for that read-out and setting: for B6 the value was 0.1; for B7, 0.5.
Take B2: the “relative β-galactosidase activity, inducer Ns” value came to 0.3.
Still for that read-out and setting: for B3 the value was 1.6.

The same series, now with this note: Table 4; no inducer; 48 hrs at 30° C.
Consider B1, for which the “relative β-galactosidase activity, inducer None” value was found to be 1.0.
Consider B4, for which the “relative β-galactosidase activity, inducer None” value is given as 0.0.
Same read-out and setting: for B5 the value was 0.1; for B6, 0.0; for B7, 0.3.
Same read-out and setting: next, B2: 0.3.
The same measure, in the same setting: for B3 the value was 1.4.

The same series, now with this note: Table 4; rimsulfuron 20 μg/ml (20 ppm); 48 hrs at 30° C.
As for B1, the “relative β-galactosidase activity, inducer Rs” value is 1.3.
On the same count and under the same terms, next, B4: 0.1.
Regarding B5, the “relative β-galactosidase activity, inducer Rs” value was found to be 0.3.
The same measure, in the same setting: next, B6: 0.2; B7: 0.4; B2: 0.4.
With B3, the “relative β-galactosidase activity, inducer Rs” value is reported as 2.0.

Still in this series, the particulars now being: Table 4; sulfometuron 20 μg/ml (20 ppm); 48 hrs at 30° C.
As to B1, the “relative β-galactosidase activity, inducer Sm” value turned out to be 4.7.
B4: the “relative β-galactosidase activity, inducer Sm” value is on record as 2.7.
As to B5, the “relative β-galactosidase activity, inducer Sm” value came out at 3.1.
The same measure, in the same setting: next, B6: 1.1; B7: 0.9; B2: 0.6.
Still for that read-out and setting: next, B3: 6.0.

The series is the same for the next values; noted with them: Table 4; thifensulfuron 20 μg/ml (20 ppm); 48 hrs at 30° C.
As to B1, the “relative β-galactosidase activity, inducer Ts” value amounted to 1.6.
Still for that read-out and setting: next, B4: 0.0; B5: 0.3; B6: 0.1.
Turning to B7, the “relative β-galactosidase activity, inducer Ts” value worked out at 0.9.
Still for that read-out and setting: for B2 the value was 1.1.
Still for that read-out and setting: for B3 the value was 2.6.

Staying with this series, now noted: Table 4; tribenuron 20 μg/ml (20 ppm); 48 hrs at 30° C.
Take B1: the “relative β-galactosidase activity, inducer Tb” value stood at 1.7.
On the same count and under the same terms, for B4 the value was 0.3; for B5, 1.6; for B6, 0.3.
Same read-out and setting: next, B7: 0.1; B2: 0.4.
Same read-out and setting: for B3 the value was 2.6.

Still in this series, the particulars now being: Table 8; inducers given as numbers without key.
For B4, the Inducer preference is given as 9 (weak).

Still in this series, the particulars now being: Table 10; chlorsulfuron 2 ppm; 48 hours at 30° C.
Take B4: the “relative β-galactosidase activity, inducer Cs” value is given as 0.2.
The same measure, in the same setting: for B2 the value was 2.2.

The series is the same for the next values; noted with them: Table 10; ethametsulfuron 2 ppm; 48 hours at 30° C.
As to B4, the “relative β-galactosidase activity, inducer Es” value is recorded as 0.3.

The same series, now with this note: Table 10; metsulfuron 2 ppm; 48 hours at 30° C.
Consider B4, for which the “relative β-galactosidase activity, inducer Ms” value is given as 0.3.
On the same count and under the same terms, next, B2: 0.9.

The same series, now with this note: Table 10; no inducer; 48 hours at 30° C.
Regarding B4, the “relative β-galactosidase activity, No inducer” value came out at 0.1.
Same read-out and setting: for B2 the value was 0.9.

The series is the same for the next values; noted with them: Table 10; sulfometuron 2 ppm; 48 hours at 30° C.
B4: the “relative β-galactosidase activity, inducer Sm” value is 0.2.
On to B2, for which the “relative β-galactosidase activity, inducer Sm” value is 0.9.
